Test results taken from the Immune Epitope Database (IEDB).

Columns and labels:
HLA-A*02:01 [1] = experiment: IEDB peptide-MHC binding, purified MHC/direct/fluorescence; filed as Kd, often an IC50 or EC50 that approximates it; ≥ and ≤ were set here for values at or beyond the usual limits of such assays
HLA-B*27:05 = experiment: as above
HLA-B*07:02 = experiment: as above
HLA-B*40:01 = experiment: as above
HLA-A*30:01 = experiment: as above
HLA-A*24:03 = experiment: as above
HLA-B*15:01 [2] = experiment: as above
HLA-A*03:01 = experiment: as above
HLA-A*01:01 = experiment: as above
HLA-A*26:01 = experiment: as above
HLA-A*11:01 = experiment: as above
HLA-B*58:01 = experiment: as above
HLA-A*69:01 = experiment: as above
HLA-A*31:01 = experiment: as above
HLA-B*08:01 [3] = experiment: as above
HLA-B*44:02 = experiment: as above
HLA-B*35:01 = experiment: IEDB peptide-MHC binding, purified MHC/competitive/fluorescence; filed as Kd, often an IC50 or EC50 that approximates it; ≥ and ≤ were set here for values at or beyond the usual limits of such assays; conditions: source organism: Escherichia coli str. K-12 substr. MG1655
HLA-A*02:01 [4] = experiment: as above; conditions: source organism: Escherichia coli 536
HLA-B*15:01 [5] = experiment: as above; conditions: source organism: Escherichia coli 536
HLA-B*08:01 [6] = experiment: as above; conditions: source organism: Escherichia coli 536
[7] = source organism: Pseudomonas aeruginosa UCBPP-PA14
[8] = source organism: Pseudomonas aeruginosa
[9] = source organism: Campylobacter jejuni
[10] = source organism: Giardia lamblia ATCC 50803
[11] = source organism: Escherichia coli

Work on RDYRTISPR yielded a Kd (HLA-A*02:01 [1]; [7]) of no less than 20 µM, a Kd (HLA-B*27:05; [7]) of no less than 20 µM and a Kd (HLA-B*07:02; [7]) of no less than 20 µM. The Kd (HLA-B*40:01; [7]) was no less than 20 µM, the Kd (HLA-A*30:01; [8]) was 2.01 µM and the Kd (HLA-A*24:03; [7]) was no less than 20 µM. It also gave a Kd (HLA-B*15:01 [2]; [7]) of no less than 20 µM, a Kd (HLA-A*03:01; [8]) of 3.44 µM and a Kd (HLA-A*01:01; [7]) of no less than 20 µM. For the same sequence, the Kd (HLA-A*26:01; [7]) was no less than 20 µM, the Kd (HLA-A*11:01; [8]) was 8.65 µM and the Kd (HLA-B*58:01; [7]) was no less than 20 µM. The Kd (HLA-A*69:01; [7]) was no less than 20 µM, the Kd (HLA-A*31:01; [8]) was 0.046 µM and the Kd (HLA-B*08:01 [3]; [7]) was no less than 20 µM.
For VKKLWGHLP, the Kd (HLA-A*02:01 [1]; [9]) was no less than 20 µM, the Kd (HLA-B*27:05; [9]) was no less than 20 µM and the Kd (HLA-B*40:01; [9]) was no less than 20 µM. For the same sequence, the Kd (HLA-A*30:01; [9]) was no less than 20 µM, the Kd (HLA-B*44:02; [9]) was no less than 20 µM and the Kd (HLA-A*24:03; [9]) was no less than 20 µM. The Kd (HLA-B*15:01 [2]; [9]) was no less than 20 µM, the Kd (HLA-A*03:01; [9]) was no less than 20 µM and the Kd (HLA-A*01:01; [9]) was no less than 20 µM. It also gave a Kd (HLA-A*26:01; [9]) of no less than 20 µM, a Kd (HLA-A*11:01; [9]) of no less than 20 µM and a Kd (HLA-B*58:01; [9]) of no less than 20 µM. The Kd (HLA-A*69:01; [9]) was no less than 20 µM and the Kd (HLA-A*31:01; [9]) was no less than 20 µM.
Sequence VYAYPSGEK has a Kd (HLA-A*02:01 [1]; [10]) of no less than 20 µM, a Kd (HLA-B*27:05; [10]) of no less than 20 µM and a Kd (HLA-B*07:02; [10]) of no less than 20 µM. It also gave a Kd (HLA-B*40:01; [10]) of no less than 20 µM, a Kd (HLA-A*30:01; [10]) of 4.7 µM and a Kd (HLA-B*44:02; [10]) of no less than 20 µM. The Kd (HLA-A*24:03; [10]) was no less than 20 µM, the Kd (HLA-B*15:01 [2]; [10]) was no less than 20 µM and the Kd (HLA-A*03:01; [10]) was 3.37 µM. It also gave a Kd (HLA-A*01:01; [10]) of no less than 20 µM, a Kd (HLA-A*26:01; [10]) of no less than 20 µM and a Kd (HLA-A*11:01; [10]) of 7.74 µM. For the same sequence, the Kd (HLA-B*58:01; [10]) was no less than 20 µM, the Kd (HLA-A*69:01; [10]) was no less than 20 µM and the Kd (HLA-B*08:01 [3]; [10]) was no less than 20 µM.
Sequence WCRVGRGTI has a Kd (HLA-A*02:01 [1]; [11]) of no less than 20 µM, a Kd (HLA-B*27:05; [11]) of no less than 20 µM and a Kd (HLA-B*07:02; [11]) of 4.68 µM. It also gave a Kd (HLA-B*40:01; [11]) of no less than 20 µM, a Kd (HLA-A*30:01; [11]) of no less than 20 µM and a Kd (HLA-A*24:03; [11]) of 13.8 µM. For the same sequence, the Kd (HLA-B*15:01 [2]; [11]) was no less than 20 µM, the Kd (HLA-A*03:01; [11]) was no less than 20 µM and the Kd (HLA-A*01:01; [11]) was no less than 20 µM. For the same sequence, the Kd (HLA-A*26:01; [11]) was no less than 20 µM, the Kd (HLA-A*11:01; [11]) was no less than 20 µM and the Kd (HLA-B*58:01; [11]) was no less than 20 µM. The Kd (HLA-A*69:01; [11]) was no less than 20 µM, the Kd (HLA-A*31:01; [11]) was no less than 20 µM and the Kd (HLA-B*08:01 [3]; [11]) was no less than 20 µM. For the same sequence, the Kd (HLA-B*35:01) was no less than 5 µM.
WLLLRQLPI showed a Kd (HLA-A*02:01 [4]) of 0.0146 µM, a Kd (HLA-B*15:01 [5]) of no less than 20 µM and a Kd (HLA-B*08:01 [6]) of 0.0452 µM.
With WSHRVTSPK the Kd (HLA-A*30:01; source organism: Vibrio cholerae V52) was 0.05 µM and the Kd (HLA-A*01:01; source organism: Vibrio cholerae) was no less than 20 µM.
